Assay results published in patent publication US12679878B2, “CRF2 receptor agonists and their use in therapy” (SANOFI, priority 2020, dated 2026).
Starred links: 1 amine or outer side, 2 acyl side, 3 side chain; linkers in the order of their positions; H or OH if unused. Non-standard residues stand in square brackets, D forms with d. Groups on a side chain read outwards from the residue. No end group written: not given here. *: point of attachment. C18 diacid = O=C(O)CCCCCCCCCCCCCCCCC(=O)*; γGlu = O=C(O)[C@H](CCC(=O)[*:2])N[*:1]; AEEA = NCCOCCOCC(=O)O; Aib = CC(C)(N)C(=O)O

B1: SEQ ID NO: 75 (peptide)
peptide: IVLSLDVPIKLK([AEEA-AEEA-γGlu-C18 diacid])QILLKQERQKKQRQQAETN[Aib]QILAQV-NH2
modifications: N-terminus assumed
SMILES: CC[C@H](C)[C@H](N)C(=O)N[C@H](C(=O)N[C@@H](CC(C)C)C(=O)N[C@@H](CO)C(=O)N[C@@H](CC(C)C)C(=O)N[C@@H](CC(=O)O)C(=O)N[C@H](C(=O)N1CCC[C@H]1C(=O)N[C@H](C(=O)N[C@@H](CCCCN)C(=O)N[C@@H](CC(C)C)C(=O)N[C@@H](CCCCNC(=O)COCCOCCNC(=O)COCCOCCNC(=O)CC[C@H](NC(=O)CCCCCCCCCCCCCCCCC(=O)O)C(=O)O)C(=O)N[C@@H](CCC(N)=O)C(=O)N[C@H](C(=O)N[C@@H](CC(C)C)C(=O)N[C@@H](CC(C)C)C(=O)N[C@@H](CCCCN)C(=O)N[C@@H](CCC(N)=O)C(=O)N[C@@H](CCC(=O)O)C(=O)N[C@@H](CCCNC(=N)N)C(=O)N[C@@H](CCC(N)=O)C(=O)N[C@@H](CCCCN)C(=O)N[C@@H](CCCCN)C(=O)N[C@@H](CCC(N)=O)C(=O)N[C@@H](CCCNC(=N)N)C(=O)N[C@@H](CCC(N)=O)C(=O)N[C@@H](CCC(N)=O)C(=O)N[C@@H](C)C(=O)N[C@@H](CCC(=O)O)C(=O)N[C@H](C(=O)N[C@@H](CC(N)=O)C(=O)NC(C)(C)C(=O)N[C@@H](CCC(N)=O)C(=O)N[C@H](C(=O)N[C@@H](CC(C)C)C(=O)N[C@@H](C)C(=O)N[C@@H](CCC(N)=O)C(=O)N[C@H](C(N)=O)C(C)C)[C@@H](C)CC)[C@@H](C)O)[C@@H](C)CC)[C@@H](C)CC)C(C)C)C(C)C
B2: SEQ ID NO: 74 (peptide)
peptide: IVLSLDVPIKLK([AEEA-AEEA-γGlu-C18 diacid])QILLEQERQKKQREQAETN[Aib]QILERV-NH2
modifications: N-terminus assumed
SMILES: CC[C@H](C)[C@H](N)C(=O)N[C@H](C(=O)N[C@@H](CC(C)C)C(=O)N[C@@H](CO)C(=O)N[C@@H](CC(C)C)C(=O)N[C@@H](CC(=O)O)C(=O)N[C@H](C(=O)N1CCC[C@H]1C(=O)N[C@H](C(=O)N[C@@H](CCCCN)C(=O)N[C@@H](CC(C)C)C(=O)N[C@@H](CCCCNC(=O)COCCOCCNC(=O)COCCOCCNC(=O)CC[C@H](NC(=O)CCCCCCCCCCCCCCCCC(=O)O)C(=O)O)C(=O)N[C@@H](CCC(N)=O)C(=O)N[C@H](C(=O)N[C@@H](CC(C)C)C(=O)N[C@@H](CC(C)C)C(=O)N[C@@H](CCC(=O)O)C(=O)N[C@@H](CCC(N)=O)C(=O)N[C@@H](CCC(=O)O)C(=O)N[C@@H](CCCNC(=N)N)C(=O)N[C@@H](CCC(N)=O)C(=O)N[C@@H](CCCCN)C(=O)N[C@@H](CCCCN)C(=O)N[C@@H](CCC(N)=O)C(=O)N[C@@H](CCCNC(=N)N)C(=O)N[C@@H](CCC(=O)O)C(=O)N[C@@H](CCC(N)=O)C(=O)N[C@@H](C)C(=O)N[C@@H](CCC(=O)O)C(=O)N[C@H](C(=O)N[C@@H](CC(N)=O)C(=O)NC(C)(C)C(=O)N[C@@H](CCC(N)=O)C(=O)N[C@H](C(=O)N[C@@H](CC(C)C)C(=O)N[C@@H](CCC(=O)O)C(=O)N[C@@H](CCCNC(=N)N)C(=O)N[C@H](C(N)=O)C(C)C)[C@@H](C)CC)[C@@H](C)O)[C@@H](C)CC)[C@@H](C)CC)C(C)C)C(C)C
B3: SEQ ID NO: 73 (peptide)
peptide: IVLSLDVPIKLK([AEEA-AEEA-γGlu-C18 diacid])QILLEQERQKKQRQKAETN[Aib]QILAQV-NH2
modifications: N-terminus assumed
SMILES: CC[C@H](C)[C@H](N)C(=O)N[C@H](C(=O)N[C@@H](CC(C)C)C(=O)N[C@@H](CO)C(=O)N[C@@H](CC(C)C)C(=O)N[C@@H](CC(=O)O)C(=O)N[C@H](C(=O)N1CCC[C@H]1C(=O)N[C@H](C(=O)N[C@@H](CCCCN)C(=O)N[C@@H](CC(C)C)C(=O)N[C@@H](CCCCNC(=O)COCCOCCNC(=O)COCCOCCNC(=O)CC[C@H](NC(=O)CCCCCCCCCCCCCCCCC(=O)O)C(=O)O)C(=O)N[C@@H](CCC(N)=O)C(=O)N[C@H](C(=O)N[C@@H](CC(C)C)C(=O)N[C@@H](CC(C)C)C(=O)N[C@@H](CCC(=O)O)C(=O)N[C@@H](CCC(N)=O)C(=O)N[C@@H](CCC(=O)O)C(=O)N[C@@H](CCCNC(=N)N)C(=O)N[C@@H](CCC(N)=O)C(=O)N[C@@H](CCCCN)C(=O)N[C@@H](CCCCN)C(=O)N[C@@H](CCC(N)=O)C(=O)N[C@@H](CCCNC(=N)N)C(=O)N[C@@H](CCC(N)=O)C(=O)N[C@@H](CCCCN)C(=O)N[C@@H](C)C(=O)N[C@@H](CCC(=O)O)C(=O)N[C@H](C(=O)N[C@@H](CC(N)=O)C(=O)NC(C)(C)C(=O)N[C@@H](CCC(N)=O)C(=O)N[C@H](C(=O)N[C@@H](CC(C)C)C(=O)N[C@@H](C)C(=O)N[C@@H](CCC(N)=O)C(=O)N[C@H](C(N)=O)C(C)C)[C@@H](C)CC)[C@@H](C)O)[C@@H](C)CC)[C@@H](C)CC)C(C)C)C(C)C
B4: SEQ ID NO: 76 (peptide)
peptide: IVLSLDVPIGLK([AEEA-AEEA-γGlu-C18 diacid])QILLEQERQKKQRQQAETN[Aib]QILAQV-NH2
modifications: N-terminus assumed
SMILES: CC[C@H](C)[C@H](N)C(=O)N[C@H](C(=O)N[C@@H](CC(C)C)C(=O)N[C@@H](CO)C(=O)N[C@@H](CC(C)C)C(=O)N[C@@H](CC(=O)O)C(=O)N[C@H](C(=O)N1CCC[C@H]1C(=O)N[C@H](C(=O)NCC(=O)N[C@@H](CC(C)C)C(=O)N[C@@H](CCCCNC(=O)COCCOCCNC(=O)COCCOCCNC(=O)CC[C@H](NC(=O)CCCCCCCCCCCCCCCCC(=O)O)C(=O)O)C(=O)N[C@@H](CCC(N)=O)C(=O)N[C@H](C(=O)N[C@@H](CC(C)C)C(=O)N[C@@H](CC(C)C)C(=O)N[C@@H](CCC(=O)O)C(=O)N[C@@H](CCC(N)=O)C(=O)N[C@@H](CCC(=O)O)C(=O)N[C@@H](CCCNC(=N)N)C(=O)N[C@@H](CCC(N)=O)C(=O)N[C@@H](CCCCN)C(=O)N[C@@H](CCCCN)C(=O)N[C@@H](CCC(N)=O)C(=O)N[C@@H](CCCNC(=N)N)C(=O)N[C@@H](CCC(N)=O)C(=O)N[C@@H](CCC(N)=O)C(=O)N[C@@H](C)C(=O)N[C@@H](CCC(=O)O)C(=O)N[C@H](C(=O)N[C@@H](CC(N)=O)C(=O)NC(C)(C)C(=O)N[C@@H](CCC(N)=O)C(=O)N[C@H](C(=O)N[C@@H](CC(C)C)C(=O)N[C@@H](C)C(=O)N[C@@H](CCC(N)=O)C(=O)N[C@H](C(N)=O)C(C)C)[C@@H](C)CC)[C@@H](C)O)[C@@H](C)CC)[C@@H](C)CC)C(C)C)C(C)C

Target: human corticotropin-releasing factor 2α (CRF2 α receptor) (human), Q13324
Sequence (Q13324 20-411): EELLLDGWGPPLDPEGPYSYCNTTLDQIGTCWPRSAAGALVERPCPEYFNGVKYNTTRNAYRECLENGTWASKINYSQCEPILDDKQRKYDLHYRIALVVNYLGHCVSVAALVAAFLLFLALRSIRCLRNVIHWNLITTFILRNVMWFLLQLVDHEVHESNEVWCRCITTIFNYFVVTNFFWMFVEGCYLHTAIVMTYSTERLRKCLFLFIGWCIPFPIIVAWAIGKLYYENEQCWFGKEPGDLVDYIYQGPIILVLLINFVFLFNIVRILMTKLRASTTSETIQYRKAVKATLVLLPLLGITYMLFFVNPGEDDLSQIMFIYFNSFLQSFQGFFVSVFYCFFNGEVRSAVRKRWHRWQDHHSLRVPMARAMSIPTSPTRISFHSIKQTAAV
Experiment: cell-based or functional assay

Row | Binder | EC50 [nM], 0% HSA [nM]
1 | B1 | 0.48
2 | B2 | 2.12
3 | B3 | 2.6
4 | B4 | 13.4
